Read-outs that look alike come from different tables or passages of the source.

Five molecules from patent US20110097341A1 (Pfizer, published 2011) can be followed below.

Holding throughout (test): cell-based or functional assay
In assay [1] the target is T1, rat NGF (rat, UniProt P25427 122-241).
A further assay deals with human NGF (human, UniProt P01138 122-241).
Assay [2] concerns the target T1, rat NGF. This is another data set of the same source.
Assay [3] concerns the target T1, rat NGF. The source holds these as a separate data set.

T1 sequence (P25427 122-241 limits assumed): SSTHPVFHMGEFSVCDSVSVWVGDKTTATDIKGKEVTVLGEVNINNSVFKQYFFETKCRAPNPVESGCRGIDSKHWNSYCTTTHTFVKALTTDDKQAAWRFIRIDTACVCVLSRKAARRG
human NGF, sequence (P01138 122-241 limits assumed): as the sequence (P25427 122-241 limits assumed) above, with T3S, V6I, M9R, T37M, A60D, E65D, T92M, D94G, A117V, G120A counted along it

In the assay with rat NGF [1], mouse antibody 911 (Fab) had an IC50 (1.5 pM NGF), NGF-dependent survival of mouse E13.5 trigeminal neurons of 34.6 pM and an IC50 (15 pM NGF), NGF-dependent survival of mouse E13.5 trigeminal neurons of 161 pM. Further, in the assay with human NGF, the IC50 (in the presence of 1.5 pM NGF), NGF-dependent survival of mouse E13.5 trigeminal neurons amounted to 63.5 pM; the IC50 (in the presence of 15 pM NGF), NGF-dependent survival of mouse E13.5 trigeminal neurons is 322 pM; the concentration that totally blocked NGF-elicited survival of trigeminal neurons amounted to 20 nM.

B1: 3C (Fab, V domains shown)
VH: QVQLQESGPGLVKPSETLSLTCTVSGFSLIGYDLNWIRQPPGKGLEWIGIIWGDGTTDYNSAVKSRVTISKDTSKNQFSLKLSSVTAADTAVYYCARGGYWYATSYYFDYWGQGTLVTVS
VL: DIQMTQSPSSLSASVGDRVTITCRASQSISNNLNWYQQKPGKAPKLLIYYTSRFHSGVPSRFSGSGSGTDFTFTISSLQPEDIATYYCQQERTLPYTFGQGTKLEIKR
With B1, in the assay with human NGF, the “IC50 (in the presence of 1.5 pM NGF), NGF-dependent survival of mouse E13.5 trigeminal neurons” value (shortened to “IC50 (in the presence of 1.5 pM NGF)”) amounted to 5.6 pM and the “IC50 (in the presence of 15 pM NGF), NGF-dependent survival of mouse E13.5 trigeminal neurons” value (shortened to “IC50 (in the presence of 15 pM NGF)”) was 80.9 pM. In the assay with rat NGF [2], the “IC50 (1.5 pM NGF), NGF-dependent survival of mouse E13.5 trigeminal neurons” value (from here on “IC50 (1.5 pM NGF)”) was found to be 6 pM and the “IC50 (15 pM NGF), NGF-dependent survival of mouse E13.5 trigeminal neurons” value (shortened to “IC50 (15 pM NGF), NGF-dependent survival”) was 31.6 pM.

B2: 8L2-6D5 (Fab, V domains shown)
VH: QVQLQESGPGLVKPSETLSLTCTVSGFSLIGYDINWIRQPPGKGLEWIGMIWGDGTTDYNSALKSRVTISKDTSKNQFSLKLSSVTAADTAVYYCARGGYYYGTSYYFDYWGQGTLVTVS
VL: DIQMTQSPSSLSASVGDRVTITCRASQDISNHLNWYQQKPGKAPKLLIYYISRFHSGVPSRFSGSGSGTDFTFTISSLQPEDIATYYCQQSKTLPYTFGQGTKLEIKR
For B2, in the assay with human NGF, the “IC50 (in the presence of 1.5 pM NGF)” value worked out at 462 pM and the “IC50 (in the presence of 15 pM NGF)” value came out at 1580 pM. In the assay with rat NGF [2], the “IC50 (1.5 pM NGF)” value amounted to 169 pM and the “IC50 (15 pM NGF), NGF-dependent survival” value worked out at 730 pM.

B3: Fab E3 (Fab, V domains shown)
VH: QVQLQESGPGLVKPSETLSLTCTVSGFSLIGYDLNWIRQPPGKGLEWIGIIWGDGTTDYNSAVKSRVTISKDTSKNQFSLKLSSVTAADTAVYYCARGGYWYATSYYFDYWGQGTLVTVS
VL: DIQMTQSPSSLSASVGDRVTITCRASQSISNNLNWYQQKPGKAPKLLIYYTSRFHSGVPSRFSGSGSGTDFTFTISSLQPEDIATYYCQQEHTLPYTFGQGTKLEIKR
For the molecule B3, in the assay with human NGF, the “IC50 (in the presence of 1.5 pM NGF)” value is below 1.2 pM and the “IC50 (in the presence of 15 pM NGF)” value was below 21 pM. In the assay with rat NGF [2], the “IC50 (1.5 pM NGF)” value was below 1.3 pM and the “IC50 (15 pM NGF), NGF-dependent survival” value is below 8.3 pM. The “IC50 in the presence of 15 pM rat NGF, trigeminal neuron survival” value with rat NGF [3] is around 31.6 pM.

B4: H19-L129 (Fab, V domains shown)
VH: QVQLQESGPGLVKPSETLSLTCTVSGFSLIGYDLNWIRQPPGKGLEWIGIIWGDGTTDYNSAVKSRVTISKDTSKNQFSLKLSSVTAADTAVYYCARGGYYYGTSYYFDYWGQGTLVTVS
VL: DIQMTQSPSSLSASVGDRVTITCRASQSISNNLNWYQQKPGKAPKLLIYYTSRFHSGVPSRFSGSGSGTDFTFTISSLQPEDIATYYCQQSKTLPYTFGQGTKLEIKR
On to B4, for which, in the assay with human NGF, the “IC50 (in the presence of 1.5 pM NGF)” value was found to be 9.6 pM and the “IC50 (in the presence of 15 pM NGF)” value is 60.1 pM. In addition, in the assay with rat NGF [2], the “IC50 (1.5 pM NGF)” value is 6 pM and the “IC50 (15 pM NGF), NGF-dependent survival” value was found to be 31 pM.
